Data on four molecules can be found in article PMC3923783, “Competitive and Cooperative Interactions Mediate RNA Transfer from Herpesvirus Saimiri ORF57 to the Mammalian Export Adaptor ALYREF”.

The target of data set [1] is T1, ORF57 8-120 (Herpesvirus saimiri, UniProt P13199 8-120). In words: intrinsic Trp fluorescence titration; Fluorescence: 20 mM phosphate pH 6.2, 50 mM NaCl, 50 mM L-Arg+L-Glu, 5 mM EDTA, 1 mM TCEP (temperature not stated); NMR: 20 mM phosphate pH 6.2, 50 mM NaCl, 50. The settings on record: protein: recombinant.
T1 sequence (P13199 8-120): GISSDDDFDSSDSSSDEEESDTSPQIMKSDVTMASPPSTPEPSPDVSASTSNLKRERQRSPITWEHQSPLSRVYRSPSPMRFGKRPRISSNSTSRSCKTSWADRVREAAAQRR
Data set [2] concerns the target ORF57 8-120;ALYREF 1-155 (REF2-I) (Herpesvirus saimiri;mouse, UniProt P13199;Q9JJW6 8-120;1-155, |). As to the kind of experiment: intrinsic Trp fluorescence titration; RNA into preformed 1:1 ORF57-ALYREF complex, 10 uM; apparent macroscopic Kd; Fluorescence: 20 mM phosphate pH 6.2, 50 mM NaCl, 50 mM L-Arg+L-Glu, 5 mM EDTA, 1 mM TCEP (temperature not stated); NMR: 20 mM phosphate pH 6.2, 50 mM NaCl, 50. As to conditions: protein: recombinant;recombinant; tags: ;; copies: 1;1.

In data set [3] the target is T1, ORF57 8-120. As to the kind of experiment: NMR (HSQC titration, saturation transfer); aa64-120 broadened beyond detection at 1:1; Fluorescence: 20 mM phosphate pH 6.2, 50 mM NaCl, 50 mM L-Arg+L-Glu, 5 mM EDTA, 1 mM TCEP (temperature not stated); NMR: 20 mM phosphate pH 6.2, 50 mM NaCl, 50. As to conditions: protein: recombinant.
The target of another data set is His-ORF57 8-120 WT (Herpesvirus saimiri, UniProt P13199 8-120). As to the kind of experiment: UV cross-linking; Fluorescence: 20 mM phosphate pH 6.2, 50 mM NaCl, 50 mM L-Arg+L-Glu, 5 mM EDTA, 1 mM TCEP (temperature not stated); NMR: 20 mM phosphate pH 6.2, 50 mM NaCl, 50. The settings on record: protein: recombinant; tags: His6; label: radioactive end label.
Sequence of His-ORF57 8-120 WT (P13199 8-120): as above

Sequence of ORF57 8-120;ALYREF 1-155 (REF2-I) (P13199 8-120, chain 1 of 2): as the sequence (P13199 8-120) above
Sequence of ORF57 8-120;ALYREF 1-155 (REF2-I) (Q9JJW6 1-155, chain 2 of 2): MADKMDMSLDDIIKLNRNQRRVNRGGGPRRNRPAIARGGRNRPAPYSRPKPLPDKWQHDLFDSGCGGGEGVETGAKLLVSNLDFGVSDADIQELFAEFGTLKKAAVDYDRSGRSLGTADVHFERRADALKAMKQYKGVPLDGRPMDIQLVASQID

With CAGUCGCGAAGAGG (ssRNA) [14merS], the Kd with ORF57 8-120 [1] is 7.57 ± 0.06 µM; in data set [2] it was 1.55 ± 0.24 µM.
In the case of GAAGAGG (ssRNA) [7merS], the binding result with ORF57 8-120 [3] was “binds”.
On to CAGUCGC (ssRNA) [7merN], for which, in the data set with ORF57 8-120 [1], the Kd came out at 38.8 ± 0.6 µM.
GAAGAGG (ssRNA) [7merS end-labeled]: the binding result with His-ORF57 8-120 WT was “binds”.
